Laboratory results taken from patent publication US20220119534A1 (DRAGONFLY THERAPEUTICS, published 2022).
Positions count from the first letter of the chain named. Names and notes keep the numbering of the source. Values joined by “and” are separate entries in the source; they are usually repeats but may differ in a detail not shown here. Equal values may be shown once. One block for each binder: values may come before it.

Columns and labels:
[1] = target: T1, Human CD16a V158 (FcγRIIIa V158) (human, UniProt P08637 17-208, biotinylated (site not stated)); experiment: SPR; biotinylated CD16a V158 captured on SA chip, TriNKET as analyte; 1:1 kinetic fit; control sample, n=3
T1 construct: V158 is the allele name in mature numbering; also called hCD16aV; hCD16a V158

Human CLEC12A-His [2] = target: T2, Human CLEC12A-His (human, UniProt Q5QGZ9 65-265); experiment: SPR Biacore 8K 37 C; TriNKET captured on anti-hFc chip, hCLEC12A-His as analyte; 1:1 fit; control sample, n=2
T2 construct: Recombinant soluble protein made in house (Dragonfly Tx); The hCLEC12A spot of the HuProt array is written under this molecule as well; also called hCLEC12A-His; hCLEC12A; not shown: His tag
T2 sequence: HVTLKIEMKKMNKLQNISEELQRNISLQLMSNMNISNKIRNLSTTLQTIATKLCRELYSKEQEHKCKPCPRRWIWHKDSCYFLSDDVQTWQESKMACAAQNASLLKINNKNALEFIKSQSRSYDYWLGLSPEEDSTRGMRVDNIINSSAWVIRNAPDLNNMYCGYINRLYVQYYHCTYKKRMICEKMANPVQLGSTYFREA

Human CLEC12A-His [3] = target: T2, Human CLEC12A-His; experiment: SPR Biacore 8K 37 C; TriNKET captured on anti-hFc chip, hCLEC12A-His as analyte; 1:1 fit; after 2 wks 2-8 C in CST pH 7.0, n=2
Human CD32a R131 = target: T3, Human CD32a R131 (human, UniProt P12318 36-218, limits assumed, biotinylated); experiment: SPR, steady state fit
T3 construct: Bought recombinant receptor; also called hFcγRIIa R131
T3 sequence (looked up): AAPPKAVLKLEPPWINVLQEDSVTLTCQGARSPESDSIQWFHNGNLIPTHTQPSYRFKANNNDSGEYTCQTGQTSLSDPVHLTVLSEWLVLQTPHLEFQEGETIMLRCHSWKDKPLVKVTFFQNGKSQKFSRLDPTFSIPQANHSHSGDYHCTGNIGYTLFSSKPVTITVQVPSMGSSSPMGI

[4] = target: T4, human CLEC12A on cells (HL60, PL21, Ba/F3-hCLEC12A) (human, UniProt Q5QGZ9 1-265); experiment: flow cytometry, PL21 cells
T4 construct: Endogenous on the AML lines HL60 and PL21; brought into mouse Ba/F3 cells by retroviral transduction; The cell line stands under assay; also called CLL-1
T4 sequence: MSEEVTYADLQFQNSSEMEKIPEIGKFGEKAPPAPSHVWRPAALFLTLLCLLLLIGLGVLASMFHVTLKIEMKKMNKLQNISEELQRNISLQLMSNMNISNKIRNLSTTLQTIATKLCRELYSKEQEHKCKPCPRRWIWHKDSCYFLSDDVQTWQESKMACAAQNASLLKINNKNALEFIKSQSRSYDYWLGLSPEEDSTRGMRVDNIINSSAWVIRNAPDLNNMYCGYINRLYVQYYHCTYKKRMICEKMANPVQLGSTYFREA

Human CLEC12A-His [5] = target: T5, Human CLEC12A-His (human, UniProt Q5QGZ9 65-265); experiment: SPR, 37 C, AB0192 captured, hCLEC12A-His analyte
T5 construct: Recombinant soluble protein made in house; also called hCLEC12A-His; hCLEC12A; not shown: His tag
T5 sequence: T2 sequence

mFc-hNKG2D = target: T6, mFc-hNKG2D (human, UniProt P26718 73-216); experiment: SPR, 37 C, mFc-hNKG2D captured, 1:1 kinetic fit; average
T6 construct: extracellular domain; Recombinant mFc-tagged NKG2D dimer, made in house; also called human NKG2D; not shown: mouse Fc tag
T6 sequence (looked up): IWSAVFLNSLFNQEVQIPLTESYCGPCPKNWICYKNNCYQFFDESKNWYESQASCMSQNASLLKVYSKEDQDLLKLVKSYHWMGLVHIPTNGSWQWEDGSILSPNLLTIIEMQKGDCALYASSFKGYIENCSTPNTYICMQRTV

[6] = target: T7, mFc-hNKG2D (recombinant mFc-tagged human NKG2D dimer) (human, UniProt P26718 73-216); experiment: SPR; control sample
T7 construct: extracellular domain; Made in house; not shown: mouse Fc tag
T7 sequence (looked up): T6 sequence (looked up)

[7] = target: T8, Human CD16a V158 (FcγRIIIa V158) (human, UniProt P08637 17-208, biotinylated); experiment: SPR; control sample
T8 construct: Bought recombinant receptor; also called hCD16aV; hFcγRIIIa V158

Human CD32b (FcγRIIb) = target: T9, Human CD32b (FcγRIIb) (human, UniProt P31994 46-217, limits assumed, biotinylated); experiment: SPR 25C, biotinylated CD32b captured
T9 construct: Bought recombinant receptor; also called hFcγRIIb; CD32b (FcγR2b)
T9 sequence (looked up): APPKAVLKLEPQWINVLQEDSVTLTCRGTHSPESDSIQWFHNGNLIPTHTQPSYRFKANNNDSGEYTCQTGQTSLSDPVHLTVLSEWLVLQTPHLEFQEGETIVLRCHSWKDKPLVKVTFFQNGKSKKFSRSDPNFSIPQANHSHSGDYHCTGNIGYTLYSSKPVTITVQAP

[8] = target: T10, recombinant human CLEC12A-His (human, UniProt Q5QGZ9 65-265); experiment: SPR 37C
T10 construct: also called hCLEC12A-His; hCLEC12A
T10 sequence: T2 sequence

[9] = target: T11, recombinant cynomolgus CD16 (cynomolgus monkey, UniProt Q8SPW2 17-208, biotinylated); experiment: SPR 25C, steady state, average
T11 construct: also called cFcγRIII; cyno CD16

[10] = target: T10, recombinant human CLEC12A-His; experiment: SPR, CLEC12A binding
recombinant human FcRn = target: T12, recombinant human FcRn (human, UniProt P55899 24-297; P61769 21-119); experiment: SPR 25C, pH 6.0, steady state; pH 6.0; third replicate
T12 construct: also called hFcRn

T1 sequence (P08637 17-208 F176V limits assumed): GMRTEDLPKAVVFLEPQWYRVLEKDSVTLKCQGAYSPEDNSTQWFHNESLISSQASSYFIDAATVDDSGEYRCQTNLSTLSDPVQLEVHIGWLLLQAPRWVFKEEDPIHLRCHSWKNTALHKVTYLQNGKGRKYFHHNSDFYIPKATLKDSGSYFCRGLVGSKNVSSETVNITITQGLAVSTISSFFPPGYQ
T8 sequence (P08637 17-208 F176V limits assumed): as above
T11 sequence (Q8SPW2 17-208 limits assumed): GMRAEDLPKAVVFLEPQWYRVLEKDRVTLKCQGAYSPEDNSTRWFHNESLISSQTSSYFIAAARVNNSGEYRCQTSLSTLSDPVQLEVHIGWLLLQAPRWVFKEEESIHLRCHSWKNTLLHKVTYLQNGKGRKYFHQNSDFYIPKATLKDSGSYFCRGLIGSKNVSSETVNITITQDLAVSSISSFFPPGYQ

Kd [1]: 212 nM
koff [1]: 0.024 s⁻¹
kon [1]: 113000 M⁻¹ s⁻¹
Kd (Human CLEC12A-His [2]): 0.98 nM
koff (Human CLEC12A-His [2]): 0.000735 s⁻¹
kon (Human CLEC12A-His [2]): 750000 M⁻¹ s⁻¹
Kd (Human CLEC12A-His [3]): 0.89 nM
koff (Human CLEC12A-His [3]): 0.0006 s⁻¹
kon (Human CLEC12A-His [3]): 672000 M⁻¹ s⁻¹
B1: F3'-1602 TriNKET (bispecific antibody, human IgG1, kappa)
chain: QLQLQESGPGLVKPSETLSLTCTVSGFSLTNYGLHWIRQPPGKCLEWIGVIWSGGKTDYNPSLKSRVTISKDTSKNQFSLKLSSVQAADTAVYYCAKYDYDDSLDYWGQGTLVTVSSGGGGSGGGGSGGGGSGGGGSDIQMTQSPSSLSASVGDRVTITCHASQNINFWLSWYQQKPGKAPKLLIYEASNLHTGVPSRFSGSGSGTRFTLTISSLQPEDIATYYCQQSHSYPLTFGCGTKLEIKGSDKTHTCPPCPAPELLGGPSVFLFPPKPKDTLMISRTPEVTCVVVDVSHEDPEVKFNWYVDGVEVHNAKTKPREEQYNSTYRVVSVLTVLHQDWLNGKEYKCKVSNKALPAPIEKTISKAKGQPREPRVYTLPPCRDELTKNQVSLTCLVKGFYPSDIAVEWESNGQPENNYKTTPPVLVSDGSFTLYSKLTVDKSRWQQGNVFSCSVMHEALHNHYTQKSLSLSPG
heavy: EVQLVESGGGLVKPGGSLRLSCAASGFTFSSYSMNWVRQAPGKGLEWVSSISSSSSYIYYADSVKGRFTISRDNAKNSLYLQMNSLRAEDTAVYYCARGAPIGAAAGWFDPWGQGTLVTVSSASTKGPSVFPLAPSSKSTSGGTAALGCLVKDYFPEPVTVSWNSGALTSGVHTFPAVLQSSGLYSLSSVVTVPSSSLGTQTYICNVNHKPSNTKVDKKVEPKSCDKTHTCPPCPAPELLGGPSVFLFPPKPKDTLMISRTPEVTCVVVDVSHEDPEVKFNWYVDGVEVHNAKTKPREEQYNSTYRVVSVLTVLHQDWLNGKEYKCKVSNKALPAPIEKTISKAKGQPREPQVCTLPPSRDELTENQVSLTCLVKGFYPSDIAVEWESNGQPENNYKTTPPVLDSDGSFFLYSWLTVDKSRWQQGNVFSCSVMHEALHNHYTQKSLSLSPG
light: DIQMTQSPSSVSASVGDRVTITCRASQGISSWLAWYQQKPGKAPKLLIYAASSLQSGVPSRFSGSGSGTDFTLTISSLQPEDFATYYCQQGVSFPRTFGGGTKVEIKRTVAAPSVFIFPPSDEQLKSGTASVVCLLNNFYPREAKVQWKVDNALQSGNSQESVTEQDSKDSTYSLSSTLTLSKADYEKHKVYACEVTHQGLSSPVTKSFNRGEC
notes: Trispecific F3' format: CLEC12A scFv-Fc paired with NKG2D Fab-Fc; Stressed and control samples of the stability studies are the same molecule; also called AB0237

Kd (Human CD32a R131): 1380 nM and 1290 nM and 1800 nM and 1130 nM
EC50 [4]: 0.37 nM
FOB (fold over background) [4]: 12 fold
Kd (Human CLEC12A-His [5]): 1.72 nM and 1.99 nM and 1.71 nM
koff (Human CLEC12A-His [5]): 0.00136 s⁻¹ and 0.00151 s⁻¹ and 0.00134 s⁻¹
kon (Human CLEC12A-His [5]): 787000 M⁻¹ s⁻¹ and 757000 M⁻¹ s⁻¹ and 785000 M⁻¹ s⁻¹
koff (mFc-hNKG2D): 0.146 s⁻¹
kon (mFc-hNKG2D): 188000 M⁻¹ s⁻¹
B2: AB0192 TriNKET (other)
chain: EVQLVESGGGVVQPGGSLRLSCAASGFTFNAFGMHWVRQAPGKCLEWVAFISSGSTSIYYANTVKGRFTISRDNSKNTLYLQMNSLRAEDTAVYYCARDGYPTGGAMDYWGQGTSVTVSSGGGGSGGGGSGGGGSGGGGSDIQMTQSPSSLSASVGDRVTITCKASQDIYNYLSWFQQKPGKAPKPLIYRANILVSGVPSRFSGSGSGQDYTFTISSLQPEDIATYYCLQFDAFPFTFGCGTKLEIKGSDKTHTCPPCPAPELLGGPSVFLFPPKPKDTLMISRTPEVTCVVVDVSHEDPEVKFNWYVDGVEVHNAKTKPREEQYNSTYRVVSVLTVLHQDWLNGKEYKCKVSNKALPAPIEKTISKAKGQPREPRVYTLPPCRDELTKNQVSLTCLVKGFYPSDIAVEWESNGQPENNYKTTPPVLVSDGSFTLYSKLTVDKSRWQQGNVFSCSVMHEALHNHYTQKSLSLSPG
heavy: B1 heavy
light: B1 light
notes: the condition stands under assay; also called AB0192 Lot AB0192-005

Kd [6]: 772 nM
koff [6]: 0.135 s⁻¹
kon [6]: 175000 M⁻¹ s⁻¹
Kd [7]: 323 nM
koff [7]: 0.0276 s⁻¹
kon [7]: 85300 M⁻¹ s⁻¹
Kd (Human CD32b (FcγRIIb)): 7100 nM and 5300 nM and 7400 nM
B3: AB0089 TriNKET (bispecific antibody, human IgG1, kappa)
chain: B1 chain with S53V, K56A, K71V, Y98G, D101G, S103T, R207D, I220F
heavy: B1 heavy
light: B1 light
notes: F3' format heterodimer of three chains; human IgG1 Fc with EW-RVT and Y349C/S354C mutations; also called AB0089 Lot AB0089-002; CLEC12A TriNKET AB0089

Kd [8]: 0.58 nM and 0.59 nM and 0.57 nM and 0.6 nM
koff [8]: 0.000494 s⁻¹ and 0.000489 s⁻¹ and 0.000499 s⁻¹
kon [8]: 854000 M⁻¹ s⁻¹ and 833000 M⁻¹ s⁻¹ and 863000 M⁻¹ s⁻¹ and 826000 M⁻¹ s⁻¹
Kd [9]: 306 nM
Kd [10]: 0.6 nM
Kd (recombinant human FcRn): 1500 nM
B4: F3'-1602 TriNKET (other)
chain: B1 chain
heavy: B1 heavy
light: B1 light
notes: CLEC12A scFv-Fc, NKG2D A49MI Fab-Fc, human IgG1 Fc; also called AB0237
